This assay has as its target T1, mouse CD276 expressed on the cell surface (mouse, UniProt Q8VE98 29-316).
T1 construct: whole, on cells; also called CHO-msCD276; host CD276 on tumor vasculature of CD276 WT mice
T1 sequence (looked up): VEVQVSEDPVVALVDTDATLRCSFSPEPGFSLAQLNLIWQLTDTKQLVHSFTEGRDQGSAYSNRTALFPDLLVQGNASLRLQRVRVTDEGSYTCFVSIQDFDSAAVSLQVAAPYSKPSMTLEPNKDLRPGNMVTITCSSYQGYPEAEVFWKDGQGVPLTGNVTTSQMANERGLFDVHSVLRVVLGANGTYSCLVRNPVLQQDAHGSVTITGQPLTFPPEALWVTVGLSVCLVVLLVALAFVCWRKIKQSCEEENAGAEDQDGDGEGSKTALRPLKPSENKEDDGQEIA
Description: immunofluorescence of tumor vasculature after IP injection; no green staining in CD276 KO mice.

The values below come from US20180186890A1 (UNITED STATES OF AMERICA AS REPRESENTED BY THE SECRETARY …, published 2018).

B1: FITC-labeled human anti-CD276 antibody m8524 IgG1 (antibody, V domains shown)
VH: QVQLQQSGAEVKKPGSSVKVSCKASGGTFSSYAISWVRQAPGQGLEWMGGIIPILGIANYAQKFQGRVTITADESTSTAYMELSSLRSEDTAVYYCARGGSGSYHMDVWGKGTTVTVSS
VL: EIVLTQSPATLSLSPGERATLSCRASQSVSSYLAWYQQKPGQAPRLLIYDASNRATGIPARFSGSGSGTDFTLTISSLEPEDFAVYYCQQRSNWPPRITFGQGTRLEIK
modifications: FITC-labeled antibody (site not stated)
notes: IgG1; also called anti-CD276 mAb
Consider B1, for which the binding result was “binds”.
